Four proteins from PMC10089660 can be followed below.

One series is described as follows: OxiSelect ROS/RNS assay. Conditions: glycan lost; control: PON1-WT.
Series [1] is described as follows: SRB drug sensitivity assay. Conditions: glycan lost; control: PON1-WT.
Series [2] is described as follows: ELISA of secretome PON1, H1993-GR. Conditions: glycan lost; control: PON1-WT. (An ELISA detects its analyte on a solid surface through an enzyme-linked reagent.)
A short description of series [3]: sandwich ELISA of IL-6, TNF-α, GM-CSF. The settings on record: glycan lost; control: PON1-WT.
Series [4] is described as follows: intracellular paraoxonase activity, H1993-GR. The settings on record: glycan lost; control: PON1-WT.
The nature of series [5]: intracellular arylesterase activity, H1993-GR. The settings on record: glycan lost; control: PON1-WT.
A short description of series [6]: CHX chase, immunoblot, PON1 remaining, H1993-GR. The settings on record: glycan lost; control: PON1-WT.
Series [7] is described as follows: ATF6 ELISA of Golgi/ER fraction, immunofluorescence. Conditions: glycan lost; control: PON1-WT.
Series [8] is described as follows: trypsin sensitivity, PON1 ELISA, A549 Golgi/ER fraction. The settings on record: glycan lost; control: PON1-WT.
The nature of series [9]: trypsin sensitivity, PON1 ELISA, H1993-GR Golgi/ER fraction. The settings on record: glycan lost; control: PON1-WT.
Series [10] in a line: trypsin sensitivity, PON1 ELISA, PON1-overexpressing cells Golgi/ER. The settings on record: glycan lost; control: PON1-WT.
Series [11] is described as follows: ELISA of secretome PON1, PNGase F in culture. Conditions: glycan lost; control: untreated.
Series [12] can be described thus: paraoxonase activity, H1993-GR Golgi/ER fraction. The settings on record: glycan changed form; control: siControl.

B1: paraoxonase 1 (PON1): N253G (protein)
parent chain: MAKLIALTLLGMGLALFRNHQSSYQTRLNALREVQPVELPNCNLVKGIETGSEDLEILPNGLAFISSGLKYPGIKSFNPNSPGKILLMDLNEEDPTVLELGITGSKFDVSSFNPHGISTFTDEDNAMYLLVVNHPDAKSTVELFKFQEEEKSLLHLKTIRHKLLPNLNDIVAVGPEHFYGTNDHYFLDPYLQSWEMYLGLAWSYVVYYSPSEVRVVAEGFDFANGINISPDGKYVYIAELLAHKIHVYEKHANWTLTPLKSLDFNTLVDNISVDPETGDLWVGCHPNGMKIFFYDSENPPASEVLRIQNILTEEPKVTQVYAENGTVLQGSTVASVYKGKLLIGTVFHKALYCEL
On to B1, for which the “other: ROS/RNS in admixture secretome” value in “OxiSelect ROS/RNS assay” is “increases”. Moreover, the “other: EGFR-TKI resistance of GR and ER clones” value in [1] is reported as “decreases”. Besides, the expression_or_secretion result in series [2] was “decreases”. In addition, the “other: secretome cytokine levels” value in [3] is given as “increases”. The results for the enzymatic_activity entry in series [4] and in series [5] were “no change” and “decreases”, respectively. Moreover, the degradation_or_half_life entry in [6] is “decreases”. For the same protein, in [7], the “other: ATF6 level in co-cultured DR clones” value is “increases”. The stability_or_folding entry in series [8] is on record as “no change”; in series [9] it was “decreases”; in series [10], “decreases”.

B2: paraoxonase 1 (PON1): PNGase F (protein)
parent chain: MAKLIALTLLGMGLALFRNHQSSYQTRLNALREVQPVELPNCNLVKGIETGSEDLEILPNGLAFISSGLKYPGIKSFNPNSPGKILLMDLNEEDPTVLELGITGSKFDVSSFNPHGISTFTDEDNAMYLLVVNHPDAKSTVELFKFQEEEKSLLHLKTIRHKLLPNLNDIVAVGPEHFYGTNDHYFLDPYLQSWEMYLGLAWSYVVYYSPSEVRVVAEGFDFANGINISPDGKYVYIAELLAHKIHVYEKHANWTLTPLKSLDFNTLVDNISVDPETGDLWVGCHPNGMKIFFYDSENPPASEVLRIQNILTEEPKVTQVYAENGTVLQGSTVASVYKGKLLIGTVFHKALYCEL
Regarding B2, the expression_or_secretion result in series [11] is listed as “no change”.

B3: paraoxonase 1 (PON1): SLC35C1 RNAi (protein)
parent chain: MAKLIALTLLGMGLALFRNHQSSYQTRLNALREVQPVELPNCNLVKGIETGSEDLEILPNGLAFISSGLKYPGIKSFNPNSPGKILLMDLNEEDPTVLELGITGSKFDVSSFNPHGISTFTDEDNAMYLLVVNHPDAKSTVELFKFQEEEKSLLHLKTIRHKLLPNLNDIVAVGPEHFYGTNDHYFLDPYLQSWEMYLGLAWSYVVYYSPSEVRVVAEGFDFANGINISPDGKYVYIAELLAHKIHVYEKHANWTLTPLKSLDFNTLVDNISVDPETGDLWVGCHPNGMKIFFYDSENPPASEVLRIQNILTEEPKVTQVYAENGTVLQGSTVASVYKGKLLIGTVFHKALYCEL
As for B3, the enzymatic_activity result in series [12] is recorded as “no change”.

B4: paraoxonase 1 (PON1): N324G (protein)
parent chain: MAKLIALTLLGMGLALFRNHQSSYQTRLNALREVQPVELPNCNLVKGIETGSEDLEILPNGLAFISSGLKYPGIKSFNPNSPGKILLMDLNEEDPTVLELGITGSKFDVSSFNPHGISTFTDEDNAMYLLVVNHPDAKSTVELFKFQEEEKSLLHLKTIRHKLLPNLNDIVAVGPEHFYGTNDHYFLDPYLQSWEMYLGLAWSYVVYYSPSEVRVVAEGFDFANGINISPDGKYVYIAELLAHKIHVYEKHANWTLTPLKSLDFNTLVDNISVDPETGDLWVGCHPNGMKIFFYDSENPPASEVLRIQNILTEEPKVTQVYAENGTVLQGSTVASVYKGKLLIGTVFHKALYCEL
B4: in [1], the “other: EGFR-TKI resistance of GR and ER clones” value is listed as “decreases”. The expression_or_secretion result in [2] was “decreases”. Moreover, the stability_or_folding result in series [9] was “decreases”.
